# Molecular target: c-Myc (human) (UniProt P01106)
# Assay: cell-based or functional assay
# c-Myc (human), sequence (P01106 16-454 limits assumed): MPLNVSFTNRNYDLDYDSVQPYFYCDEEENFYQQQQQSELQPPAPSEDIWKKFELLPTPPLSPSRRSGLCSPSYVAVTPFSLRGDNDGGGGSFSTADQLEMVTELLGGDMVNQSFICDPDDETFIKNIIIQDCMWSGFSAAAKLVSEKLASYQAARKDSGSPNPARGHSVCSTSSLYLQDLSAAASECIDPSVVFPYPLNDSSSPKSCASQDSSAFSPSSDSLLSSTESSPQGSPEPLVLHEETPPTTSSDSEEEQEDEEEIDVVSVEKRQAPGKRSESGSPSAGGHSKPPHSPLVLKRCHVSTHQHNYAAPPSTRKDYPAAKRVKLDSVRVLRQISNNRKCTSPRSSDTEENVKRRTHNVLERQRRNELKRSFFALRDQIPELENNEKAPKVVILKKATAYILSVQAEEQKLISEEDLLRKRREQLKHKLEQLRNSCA
Substance,"focus formation in the Ras cooperation assay (MYC + RAS, rat embryo fibroblasts) [fold]","fold decrease in focus formation by MYC (MYC + activated RAS, rat embryo fibroblasts) [fold]","focus formation in the Ras cooperation assay (myc + ras, rat embryo fibroblasts) [fold]"
"human Bin1 (Box-dependent Myc-Interacting protein-1), full-length 451 amino acid product of cDNA p99f (from UniProt O00499 9-593)",7,6,–
"ATG99 polypeptide (murine clone #99 ORF with initiator methionine, vector neoCMV-ATG99) (from UniProt O08539 310-565)",–,–,2.4

# From patent US20030166021A1
